Legend:
[1] = test system: mouse IgG1 (Fc)-LAP-MMP-IFN
[2] = target: mouse IgG1 (Fc)-LAP-MMP-IFN; assay: cell-based or functional assay

Chain of recombinant MMP-1 (P03956 100-469): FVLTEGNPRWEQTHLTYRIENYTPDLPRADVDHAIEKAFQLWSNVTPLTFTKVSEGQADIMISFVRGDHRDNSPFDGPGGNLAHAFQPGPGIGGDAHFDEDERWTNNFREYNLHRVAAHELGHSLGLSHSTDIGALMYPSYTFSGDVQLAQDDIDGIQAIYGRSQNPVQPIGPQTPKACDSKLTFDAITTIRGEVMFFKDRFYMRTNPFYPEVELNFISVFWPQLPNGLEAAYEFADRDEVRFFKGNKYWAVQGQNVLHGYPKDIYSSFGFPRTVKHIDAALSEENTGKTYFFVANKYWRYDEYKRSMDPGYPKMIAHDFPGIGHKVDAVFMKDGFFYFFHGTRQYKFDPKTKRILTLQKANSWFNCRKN
Chain of mouse IgG1 (Fc)-LAP-MMP-IFN (chain, as listed by the source): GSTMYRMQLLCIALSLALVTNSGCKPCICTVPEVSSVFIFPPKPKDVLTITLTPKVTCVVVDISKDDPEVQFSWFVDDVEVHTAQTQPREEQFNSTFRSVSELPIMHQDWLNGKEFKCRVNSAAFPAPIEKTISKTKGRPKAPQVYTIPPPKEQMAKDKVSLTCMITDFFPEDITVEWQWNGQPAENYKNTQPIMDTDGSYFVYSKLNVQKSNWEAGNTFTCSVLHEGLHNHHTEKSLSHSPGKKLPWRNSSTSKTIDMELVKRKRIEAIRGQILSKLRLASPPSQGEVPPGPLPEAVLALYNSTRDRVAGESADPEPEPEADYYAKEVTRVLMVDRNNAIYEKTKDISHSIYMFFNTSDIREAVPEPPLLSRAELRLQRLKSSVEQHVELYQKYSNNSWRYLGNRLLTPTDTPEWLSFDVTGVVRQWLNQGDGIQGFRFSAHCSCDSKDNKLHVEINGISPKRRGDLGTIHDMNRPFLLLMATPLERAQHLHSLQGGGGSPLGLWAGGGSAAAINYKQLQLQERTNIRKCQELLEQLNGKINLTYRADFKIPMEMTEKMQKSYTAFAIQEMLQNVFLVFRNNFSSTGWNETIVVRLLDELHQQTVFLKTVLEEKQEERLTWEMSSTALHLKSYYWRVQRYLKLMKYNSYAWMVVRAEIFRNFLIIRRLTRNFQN

Substance	IFN biological activity (U/ml) [1] [U/ml]	cleavage of Ig-LAP-IFN by MMP1 (western blot with anti-LAP antibodies after non-denaturing SDS-PAGE) [1]	Luciferase activity (viability of L929 cells after EMC virus infection) [2]
recombinant MMP-1	30	The molecular weight of the cleaved Ig-LAP corresponds to the expected size of about 160 kDa.	
recombinant MMP-1 (enzyme)			5070
